T1: CYLD USP domain I790D (human, UniProt Q9NQC7 583-956, I790D)
T1 sequence: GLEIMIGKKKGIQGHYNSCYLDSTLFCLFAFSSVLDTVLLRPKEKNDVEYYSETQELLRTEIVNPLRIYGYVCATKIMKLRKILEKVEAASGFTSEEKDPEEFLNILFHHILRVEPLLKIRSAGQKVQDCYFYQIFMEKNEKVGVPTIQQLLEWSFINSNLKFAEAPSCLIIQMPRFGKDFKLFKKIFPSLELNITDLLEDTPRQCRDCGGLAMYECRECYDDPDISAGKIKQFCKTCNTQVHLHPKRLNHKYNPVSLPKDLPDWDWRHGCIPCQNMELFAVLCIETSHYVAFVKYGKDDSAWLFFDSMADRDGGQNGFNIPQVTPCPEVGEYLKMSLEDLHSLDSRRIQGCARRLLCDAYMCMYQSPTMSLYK

T2: CYLD USP domain L622D (human, UniProt Q9NQC7 583-956, L622D)
T2 sequence: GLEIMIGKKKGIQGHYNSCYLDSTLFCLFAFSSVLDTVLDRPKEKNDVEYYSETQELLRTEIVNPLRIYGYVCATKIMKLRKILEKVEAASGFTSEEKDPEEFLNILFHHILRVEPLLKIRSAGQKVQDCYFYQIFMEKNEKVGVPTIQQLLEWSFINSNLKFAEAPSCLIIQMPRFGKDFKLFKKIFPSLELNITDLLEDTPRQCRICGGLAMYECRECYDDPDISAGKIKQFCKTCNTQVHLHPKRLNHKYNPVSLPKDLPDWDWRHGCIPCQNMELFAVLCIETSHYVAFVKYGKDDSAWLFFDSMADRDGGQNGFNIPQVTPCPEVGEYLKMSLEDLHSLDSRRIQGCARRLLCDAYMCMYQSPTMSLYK

B1: SPATA2 PUB domain (aa 1–241) (domain or fragment)
chain: MGKPSSMDTKFKDDLFRKYVQFHESKVDTTTSRQRPGSDECLRVAASTLLSLHKVDPFYRFRLIQFYEVVESSLRSLSSSSLRALHGAFSMLETVGINLFLYPWKKEFRSIKTYTGPFVYYVKSTLLEEDIRAILSCMGYTPELGTAYKLRELVETLQVKMVSFELFLAKVECEQMLEIHSQVKDKGYSELDIVSERKSSAEDVRGCSDALRRRAEGREHLTASMSRVALQKSASERAAKD

How the values were obtained:
[1] = molecular target: CYLD ΔB-box (purified USP domain without the B-box) (human, UniProt Q9NQC7 592-950); assay: SPR; equilibrium
CYLD USP domain I790D [2] = molecular target: T1, CYLD USP domain I790D; assay: SPR
CYLD USP domain L622D = molecular target: T2, CYLD USP domain L622D; assay: SPR; equilibrium
CYLD USP domain I790D [3] = molecular target: T1, CYLD USP domain I790D; assay: SPR; kinetic
[4] = molecular target: B1; assay: SPR
[5] = molecular target: B1; assay: SPR; kinetic

Row | Kd [1] [µM] | koff (CYLD USP domain I790D [2]) [s⁻¹] | Kd (CYLD USP domain L622D) [µM] | Kd (CYLD USP domain I790D [3]) [nM] | koff [4] [s⁻¹] | Kd [5] [nM] | Binder
1 | > 100 | 0.086 | > 60 | 585 |  |  | B1
2 |  |  |  |  | 0.02 | 84 | CYLD USP domain (aa 583–956) (domain or fragment) GLEIMIGKKKGIQGHYNSCYLDSTLFCLFAFSSVLDTVLLRPKEKNDVEYYSETQELLRTEIVNPLRIYGYVCATKIMKLRKILEKVEAASGFTSEEKDPEEFLNILFHHILRVEPLLKIRSAGQKVQDCYFYQIFMEKNEKVGVPTIQQLLEWSFINSNLKFAEAPSCLIIQMPRFGKDFKLFKKIFPSLELNITDLLEDTPRQCRICGGLAMYECRECYDDPDISAGKIKQFCKTCNTQVHLHPKRLNHKYNPVSLPKDLPDWDWRHGCIPCQNMELFAVLCIETSHYVAFVKYGKDDSAWLFFDSMADRDGGQNGFNIPQVTPCPEVGEYLKMSLEDLHSLDSRRIQGCARRLLCDAYMCMYQSPTMSLYK

— PMC5031558 (2016)
